We go through five compounds from PMC5750218, “Protein-inspired antibiotics active against vancomycin- and daptomycin-resistant bacteria” (Nature Communications, 2018).

Read-outs that look alike come from different tables or passages of the source. Some results are limits rather than exact numbers.

For series [1] the following is noted: 32 µg mL-, 24h; ref Belley AAC 2016 60 4342; cited from earlier work.
A further series is described as follows: in vitro. The settings on record: human, 50% human plasma (pooled, sodium heparin) in PBS, pH 7.4.
Series [2] has as its system Bacillus subtilis ATCC 6633. Description: microbe, parasite or virus in culture. The class given is cell-based. The conditions noted are these: for Ac2Kaa concentration required to neutralise MIC activity / MIC: ATCC 6633, 48 h.
Series [3] is described as follows: In vivo pharmacokinetics in mice. The settings on record: mouse; for level at 5 min / level at […] / level at 0.5 h / level at 1 h / level at 2 h / level at 4 h / level at 8 h / level at 24 h: male, CD1, plasma; for level at […]: 0.250 h; for level at 0.5 h: 0.500 h; for bioavailability / AUC(0-inf) / AUC(0-t) / C0 / clearance / half-life / MRT inf / MRT last / Vd / Cmax / Tmax: plasma; for bioavailability: subcutaneous, SC 10 mg kg-1 vs IV 2 mg kg-1; for MRT inf: read-out: MRT0-inf; for MRT last: read-out: MRT0-last; for Vd: read-out: Vdss.
Protocol: Performed by WuXi AppTec (Shanghai) Co., Ltd. Seven to 9-week-old male CD1 mice (SLAC Laboratory Animal Co. Ltd., Shanghai, China) weighing 25–35 g were acclimated for approximate 3 days before being used in the study. Animals are group housed during acclimation and in-life study in compliance with the National Research Council 'Guide for the Care and Use of Laboratory Animals.' The animal room environment is controlled (target conditions: temperature 18 to 26 °C, relative humidity 30–70%, 12 h artificial light and 12 h dark) with temperature and relative humidity monitored daily. Animals were deprived of food for approximately 16 h before formulation administration then allowed access to Certified Rodent Diet (Catalogue # M-01F, Shanghai SLAC Laboratory Animal Co. Ltd.) ad libitum 4 h post dosing. Water was autoclaved before being provided to the animals ad libitum. Formulations of compounds were prepared on the morning of the dosing day. The formulation for the IV group was filtered with filter of 0.22 μm before being dosed to animals. After dose formulation preparation, duplicate 50 μL aliquots were removed from each dose formulation for use in dose validation. For each compound studied, three mice were dosed intravenously (IV) administered to each animal via tail vein per facility SOPs using test article formulated in deionised water at 1 mg mL^−1 with a dose volume of 2 mg mL^−1, providing a dose of 2 mg mL^−1 (based on free base concentration). An additional three mice were dosed subcutaneously (SC) administered to each animal via subcutaneous bolus on each animals’ back per facility SOPs using test article formulated in deionised water at 2 mg mL^−1 with a dose volume of 5 mg mL^−1, providing a dose of 10 mg mL^−1. All animals were killed at the last study time point (100% CO2 was introduced into the animal box).
Plasma samples were collected as the following target times after each dose administration: IV Sampling Time points (hours post dosing): 0, 0.083, 0.25, 0.5, 1, 2, 4, 8 and 24. SC Sampling Time points (hours post dosing): 0, 0.25, 0.5, 1, 2, 4, 8 and 24. Approximately 30 μL blood was obtained via submandibular or saphenous vein for the first several time points. For the last time point, samples were collected via cardiac puncture while the mouse was under anaesthesia. All blood samples were transferred into pre-chilled plastic microcentrifuge tubes containing 2 μL of ethylenediaminetetraacetic acid dipotassium salt (K2-EDTA) (0.5 M) as anticoagulant and placed on wet ice until centrifugation. Harvested blood samples were centrifuged within 30 min of collection at 7000 rpm (8546 × g) 4 °C for about 10 min. After centrifugation, plasma was transferred into another pre-labelled and pre-chilled polypropylene microcentrifuge tubes, then quick-frozen over dry ice and stored at −70 ± 10 °C until LC/MSMS analysis.
LC-MS/MS methods for the quantitative determination of the test article in mouse plasma were developed with an internal standard. Benchtop stability of the compound in mouse plasma was determined at mid QC concentrations in triplicate at 0, 2 h at room temperature. The stability was determined using mean peak area ratio of T2/T0 sample. If the mean peak area ratio is within 80%~120%, the test article in the plasma is considered stable for 2 h at room temperature. […] A set of QC samples consists of three concentration levels (low, middle and high). The sample analysis was performed concurrently with a set of calibration standards and two sets of QC samples using the LC-MS/MS method.
Plasma concentration vs. time data from individual animals was analysed by WinNonLin non-compartmental model (Phoenix WinNonlin 6.2.1, Pharsight, Mountain View, CA). Pharmacokinetic parameter C 0, T ½, CL, Vdss, C max, T max, AUC0-last, AUC0-inf, %F, MRT0-last, MRT0-inf and graphs of plasma concentration vs. time profile were derived.

The mark [4] stands for this setting: 2 mg/kg IV, n=3, read-out: Plasma concentration, Mean IV.
Setting [5] is: 2 mg/kg IV, read-out: Plasma concentration, Mean IV.
Setting [6] is: 10 mg/kg SC, n=3, read-out: Plasma concentration, Mean SC.
Setting [7] is: 10 mg/kg SC, read-out: Plasma concentration, Mean SC.

For `CN[C@H]1C(=O)N[C@@H]2Cc3ccc(cc3)Oc3cc4cc(c3O[C@@H]3O[C@H](C(=O)O)[C@@H](O)[C@H](O)[C@H]3NC(=O)CCCCCCCCC(C)C)Oc3ccc(cc3Cl)[C@@H](O)[C@@H]3NC(=O)[C@H](NC(=O)[C@@H]4NC(=O)[C@@H](NC2=O)c2cc(cc(O)c2Cl)Oc2cc1ccc2O)c1ccc(O)c(c1)-c1c(O[C@H]2O[C@H](CO)[C@@H](O)[C@H](O)[C@@H]2O)cc(O)cc1[C@@H](C(=O)NCCCN(C)C)NC3=O` [Compound 3, Dalbavancin], the log reduction in series [1] was 3 log.

Consider `CCCCCCCCCCCCCC(=O)N[C@@H](CCCCN)C(=O)N[C@@H](CCCCN)C(=O)N[C@@H](CCCCN)C(=O)N[C@@H](CCCCNC(=O)[C@H]1NC(=O)[C@H]2NC(=O)[C@H](NC(=O)[C@@H]3NC(=O)[C@H](CC(N)=O)NC(=O)[C@H](NC(=O)[C@@H](CC(C)C)NC)[C@H](O)c4ccc(c(Cl)c4)Oc4cc3cc(c4O[C@@H]3O[C@H](CO)[C@@H](O)[C@H](O)[C@H]3O[C@H]3C[C@](C)(N)[C@H](O)[C@H](C)O3)Oc3ccc(cc3Cl)[C@H]2O)c2ccc(O)c(c2)-c2c(O)cc(O)cc21)C(=O)O` [Compound 17, nC13CO-KKK-K(Vancomycin)-OH], for which, in the series “in vitro”, the amount remaining at 1 h, 20 µM worked out at 79%; the share remaining at 3 h, 20 µM came to 79%; the amount remaining at 6 h, 20 µM was found to be 62%; the share remaining at 24 h, 20 µM was determined as 66%. For the same compound, in series [2], the “Ac2Kaa concentration required to neutralise MIC activity” value (“Ac2Kaa concentration required” below) was determined as 400 µg/mL and the MIC was not above 0.004 µg/mL. The “Molar excess of Ac2Kaa ligand required to antagonise antibacterial activity” value in series [2] ([ligand]/[antibiotic], B. subtilis ATCC 6633, 24 h) is reported as 29,472.

The term bioavailability denotes the share of a dose that reaches the circulation, judged against a reference dose that is usually intravenous. Low readings indicate poor availability, high ones good availability. A word on the AUC(0-inf): it is total exposure, with the tail of the curve extrapolated. In general, AUC(0-t) refers to exposure summed from dosing to a finite time, without extrapolation to infinity. A higher AUC(0-t) goes with more exposure. The clearance is the volume of plasma or blood freed of the substance per unit of time. A lower clearance goes with a low capacity for elimination. Broadly, the half-life is the time in which the quantity being followed falls by half. One may read the Cmax as the peak of the concentration-time curve. What is called Tmax is the time from dosing to the highest level. For the compound `CCCCCCCCCCC(=O)N[C@@H](CCCCN)C(=O)N[C@@H](CCCCN)C(=O)N[C@@H](CCCCNC(=O)[C@H]1NC(=O)[C@H]2NC(=O)[C@H](NC(=O)[C@@H]3NC(=O)[C@H](CC(N)=O)NC(=O)[C@H](NC(=O)[C@@H](CC(C)C)NC)[C@H](O)c4ccc(c(Cl)c4)Oc4cc3cc(c4O[C@@H]3O[C@H](CO)[C@@H](O)[C@H](O)[C@H]3O[C@H]3C[C@](C)(N)[C@H](O)[C@H](C)O3)Oc3ccc(cc3Cl)[C@H]2O)c2ccc(O)c(c2)-c2c(O)cc(O)cc21)C(=O)O` [Compound 19, nC10CO-KK-K(Vancomycin)-OH], in series [2], the “Ac2Kaa concentration required” value stood at 100 µg/mL and the MIC was not above 0.004 µg/mL. Further, the level at 5 min in series [3] (setting [4]) was found to be 9370 ng/mL. In series [3] (setting [5]), the level at […] was 6970 ng/mL, the level at 0.5 h was determined as 6060 ng/mL, the level at 1 h was determined as 4860 ng/mL and the level at 2 h was determined as 2640 ng/mL. Further, in series [3] (setting [5]), the level at 4 h worked out at 1450 ng/mL, the level at 8 h was found to be 137 ng/mL and the level at 24 h is 5.7 ng/mL. In series [3] (setting [6]), the level at […] stood at 2650 ng/mL. In series [3] (setting [7]), the level at 0.5 h turned out to be 5130 ng/mL, the level at 1 h was 8790 ng/mL, the level at 2 h is 9160 ng/mL and the level at 4 h was 7370 ng/mL. Moreover, in series [3] (setting [7]), the level at 8 h amounted to 2380 ng/mL and the level at 24 h came out at 124 ng/mL. Besides, in series [3] (IV 2 mg kg-1), the AUC0-inf/AUC0-last was found to be 100%, the Tlast is on record as 18.7 h, the AUC(0-inf) was 16900 ng·h/mL and the AUC(0-t) came to 16800 ng·h/mL. Besides, in series [3] (IV 2 mg kg-1), the C0 was determined as 10900 ng/mL, the clearance turned out to be 1.98 mL/min/kg, the half-life is 2.22 h and the MRT inf is 2.26 h. In series [3] (IV 2 mg kg-1), the MRT last was found to be 2.2 h and the Vd is 0.267 L/kg. Further, in series [3] (SC 10 mg kg-1), the AUC0-inf/AUC0-last is given as 101%, the Tlast is on record as 24 h, the AUC(0-inf) came to 60500 ng·h/mL and the AUC(0-t) was found to be 59900 ng·h/mL. In series [3] (SC 10 mg kg-1), the maximum concentration (Cmax) is 9970 ng/mL, the time of peak concentration (Tmax) came to 1.67 h, the half-life was 3.49 h and the MRT inf stood at 5.59 h. Besides, the MRT last in series [3] (SC 10 mg kg-1) worked out at 5.32 h. In addition, the bioavailability in series [3] was 71.8%.

As for `CNC(=O)[C@H](CCCCNC(=O)[C@H]1NC(=O)[C@H]2NC(=O)[C@H](NC(=O)[C@@H]3NC(=O)[C@H](CC(N)=O)NC(=O)[C@H](NC(=O)[C@@H](CC(C)C)NC)[C@H](O)c4ccc(c(Cl)c4)Oc4cc3cc(c4O[C@@H]3O[C@H](CO)[C@@H](O)[C@H](O)[C@H]3O[C@H]3C[C@](C)(N)[C@H](O)[C@H](C)O3)Oc3ccc(cc3Cl)[C@H]2O)c2ccc(O)c(c2)-c2c(O)cc(O)cc21)NC(=O)[C@H](CCCCN)NC(=O)[C@H](CCCCN)NC(=O)[C@H](CCCCNC(=O)c1ccc(Oc2ccccc2)cc1)NC(=O)c1ccc(Oc2ccccc2)cc1` [Compound 24, POB2K-KK-K(Vancomycin)-NHMe], in “in vitro”, the share remaining at 1 h, 20 µM was 100%; the fraction remaining at 3 h, 20 µM came out at 100%; the share remaining at 6 h, 20 µM is 106%; the fraction remaining at 24 h, 20 µM came out at 89%. The level at 5 min in series [3] (setting [4]) turned out to be 13800 ng/mL. Also, in series [3] (setting [5]), the level at […] worked out at 10000 ng/mL, the level at 0.5 h was 5230 ng/mL, the level at 1 h amounted to 3010 ng/mL and the level at 2 h was determined as 1210 ng/mL. In series [3] (setting [5]), the level at 4 h amounted to 285 ng/mL and the level at 8 h is 81.9 ng/mL. Also, the level at […] in series [3] (setting [6]) was determined as 227 ng/mL. For the same compound, in series [3] (setting [7]), the level at 0.5 h turned out to be 548 ng/mL, the level at 1 h came out at 1400 ng/mL, the level at 2 h was found to be 1920 ng/mL and the level at 4 h stood at 2350 ng/mL. Also, in series [3] (setting [7]), the level at 8 h is 845 ng/mL and the level at 24 h was determined as 243 ng/mL. In addition, in series [3] (IV 2 mg kg-1), the AUC0-inf/AUC0-last was determined as 101%, the AUC(0-inf) is 11200 ng·h/mL, the AUC(0-t) is 11000 ng·h/mL and the C0 is 16300 ng/mL. Further, in series [3] (IV 2 mg kg-1), the clearance worked out at 2.98 mL/min/kg, the half-life was 2.29 h, the MRT inf worked out at 1.39 h and the MRT last was 1.24 h. Besides, the Vd in series [3] (IV 2 mg kg-1) turned out to be 0.248 L/kg. In series [3] (SC 10 mg kg-1), this compound yielded an AUC0-inf/AUC0-last of 113%, a Tlast of 24 h, an AUC(0-inf) of 22600 ng·h/mL and an AUC(0-t) of 20000 ng·h/mL. In series [3] (SC 10 mg kg-1), the highest level (Cmax) was 2350 ng/mL, the Tmax came out at 4 h, the half-life is 6.97 h and the MRT inf came out at 11 h. The MRT last in series [3] (SC 10 mg kg-1) is 7.99 h. This compound also registered a bioavailability in series [3] of 36.3%.

With `CCCCCCCCCCC(=O)N[C@@H](CCCCN)C(=O)N[C@@H](CCCCN)C(=O)N[C@@H](CCCCN)C(=O)N[C@@H](CCCCNC(=O)[C@H]1NC(=O)[C@H]2NC(=O)[C@H](NC(=O)[C@@H]3NC(=O)[C@H](CC(N)=O)NC(=O)[C@H](NC(=O)[C@@H](CC(C)C)NC)[C@H](O)c4ccc(c(Cl)c4)Oc4cc3cc(c4O[C@@H]3O[C@H](CO)[C@@H](O)[C@H](O)[C@H]3O[C@H]3C[C@](C)(N)[C@H](O)[C@H](C)O3)Oc3ccc(cc3Cl)[C@H]2O)c2ccc(O)c(c2)-c2c(O)cc(O)cc21)C(=O)O` [Compound 18, nC10CO-KKK-K(Vancomycin)-OH], in the series “in vitro”, the share remaining at 1 h, 20 µM was 87%; the amount remaining at 3 h, 20 µM came out at 87%; the share remaining at 6 h, 20 µM turned out to be 83%; the amount remaining at 24 h, 20 µM worked out at 93%. For the same compound, in series [2], the “Ac2Kaa concentration required” value came to 100 µg/mL and the MIC is not above 0.004 µg/mL. Moreover, the level at 5 min in series [3] (setting [4]) came to 5440 ng/mL. For the same compound, in series [3] (setting [5]), the level at […] came out at 3570 ng/mL, the level at 0.5 h worked out at 2250 ng/mL, the level at 1 h amounted to 1500 ng/mL and the level at 2 h was found to be 447 ng/mL. The level at 4 h in series [3] (setting [5]) was determined as 69.6 ng/mL. In series [3] (setting [6]), the level at […] is 2360 ng/mL. Further, in series [3] (setting [7]), the level at 0.5 h is 4450 ng/mL, the level at 1 h amounted to 6220 ng/mL, the level at 2 h is 4520 ng/mL and the level at 4 h stood at 1260 ng/mL. In series [3] (setting [7]), the level at 8 h was found to be 113 ng/mL. In series [3] (IV 2 mg kg-1), this compound returned an AUC0-inf/AUC0-last of 101%, an AUC(0-inf) of 4240 ng·h/mL, an area under the curve AUC(0-t) of 4210 ng·h/mL and a C0 of 6740 ng/mL. In series [3] (IV 2 mg kg-1), the clearance came out at 8.11 mL/min/kg, the half-life is 0.77 h, the MRT inf worked out at 0.9 h and the MRT last was 0.9 h. Moreover, the Vd in series [3] (IV 2 mg kg-1) was determined as 0.43 L/kg. In series [3] (SC 10 mg kg-1), this compound yielded an AUC0-inf/AUC0-last of 101%, a Tlast of 8 h, an AUC(0-inf) of 16300 ng·h/mL and an AUC(0-t) of 16100 ng·h/mL. For the same compound, in series [3] (SC 10 mg kg-1), the maximum concentration (Cmax) turned out to be 6290 ng/mL, the Tmax was 0.83 h, the half-life is 1.1 h and the MRT inf was determined as 2 h. In addition, the MRT last in series [3] (SC 10 mg kg-1) stood at 1.9 h. In series [3], this compound yielded a bioavailability of 77%.
